Measured values: patent US20190062438A1 (CSL, published 2019)

What was measured:
Experiment in all cases: SPR, kinetics, Fab over captured mutant
shCD131 G420A = target: T1, shCD131 G420A (human, UniProt P32927 17-438)
T1 construct: C-terminal 6xHis
T1 sequence: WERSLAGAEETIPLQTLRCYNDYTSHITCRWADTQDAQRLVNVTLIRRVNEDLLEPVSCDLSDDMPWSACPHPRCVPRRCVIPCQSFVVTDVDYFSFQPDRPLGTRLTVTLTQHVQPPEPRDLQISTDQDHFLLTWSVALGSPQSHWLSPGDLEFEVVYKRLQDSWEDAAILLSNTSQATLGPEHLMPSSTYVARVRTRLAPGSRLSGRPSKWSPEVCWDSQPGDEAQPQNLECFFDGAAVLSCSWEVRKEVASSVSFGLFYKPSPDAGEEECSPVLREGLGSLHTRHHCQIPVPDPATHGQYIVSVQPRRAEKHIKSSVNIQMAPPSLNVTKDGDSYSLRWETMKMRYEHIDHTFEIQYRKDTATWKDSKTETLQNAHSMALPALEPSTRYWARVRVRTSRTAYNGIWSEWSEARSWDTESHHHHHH
Method: (§1) As shβc is a dimer, kinetics assays were performed with shβc captured on the sensor surface, and purified Fab injected as the analyte. Avidity effects were avoided by the use of Fab rather than whole IgG.
(§2) shCD131 was captured on spots 1 and 5 of each flow cell for 2 minutes at a concentration of 0.4 μg/ml. […] For some analysis purified Fab was injected over each flow cell for 3 minutes and dissociation was monitored for a further 10 minutes. Regeneration of the surface was performed after each cycle with a 40 second injection of 25 mM glycine, pH 2.0. The analysis was performed with Fabs at several concentrations between 100 and 0.31 nM, with each concentration analyzed twice and in random order. The analysis was performed at a flow rate of 30 μl/min in HBS-EP buffer (10 mM Hepes, 150 mM NaCl, 3 mM EDTA, 0.005% Tween 20, pH 7.4) at 37° C. Responses from spots 2 and 4 of each flow cell, (in which shβc was not captured, but otherwise treated identically), were subtracted from those of spots 1 and 5 respectively to produce reference subtracted data. Reference subtracted responses from a blank injection comprising buffer alone were subtracted from the resultant sensorgrams to produce double referenced data suitable for kinetic analysis. Double-referenced sensorgrams were fitted using non-linear regression to a model describing 1:1 kinetics, including a term for mass transport limitation. The Rₘₐₓ value was fitted locally to account for slight deviations in the level of sCD131 captured, with association rate (kₐ), dissociation rate (kd) and equilibrium dissociation constant (KD) fitted globally.
(§3) Mapping of the shCD131 epitope was performed by measurement of the affinity of Fabs for various alanine point mutants of shCD131 essentially as described above, with the following exceptions. Each shCD131 mutant was captured for 120 seconds at concentrations between 1 and 5 μg/ml. For kinetic analysis, purified recombinant Fabs were injected for 2 minutes, and dissociation was monitored for a further 2 minutes. […] Fab concentrations ranged from 16 μM to 3.9 nM in two-fold dilutions.

shCD131 V104A = target: T2, shCD131 V104A (human, UniProt P32927 17-438)
T2 construct: C-terminal 6xHis
T2 sequence: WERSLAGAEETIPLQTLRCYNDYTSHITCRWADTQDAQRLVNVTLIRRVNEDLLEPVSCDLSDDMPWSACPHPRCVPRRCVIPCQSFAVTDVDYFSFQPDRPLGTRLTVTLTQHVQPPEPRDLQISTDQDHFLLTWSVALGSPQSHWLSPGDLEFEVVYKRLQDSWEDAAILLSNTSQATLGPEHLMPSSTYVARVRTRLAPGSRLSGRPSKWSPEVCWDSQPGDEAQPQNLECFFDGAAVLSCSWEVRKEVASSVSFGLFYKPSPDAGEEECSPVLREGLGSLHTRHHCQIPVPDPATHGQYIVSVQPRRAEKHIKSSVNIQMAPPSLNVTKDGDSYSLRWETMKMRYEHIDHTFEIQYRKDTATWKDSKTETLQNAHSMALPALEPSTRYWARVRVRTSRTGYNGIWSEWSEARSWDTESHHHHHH
Method: as §1, §2, §3

shCD131 V105A = target: T3, shCD131 V105A (human, UniProt P32927 17-438)
T3 construct: C-terminal 6xHis
T3 sequence: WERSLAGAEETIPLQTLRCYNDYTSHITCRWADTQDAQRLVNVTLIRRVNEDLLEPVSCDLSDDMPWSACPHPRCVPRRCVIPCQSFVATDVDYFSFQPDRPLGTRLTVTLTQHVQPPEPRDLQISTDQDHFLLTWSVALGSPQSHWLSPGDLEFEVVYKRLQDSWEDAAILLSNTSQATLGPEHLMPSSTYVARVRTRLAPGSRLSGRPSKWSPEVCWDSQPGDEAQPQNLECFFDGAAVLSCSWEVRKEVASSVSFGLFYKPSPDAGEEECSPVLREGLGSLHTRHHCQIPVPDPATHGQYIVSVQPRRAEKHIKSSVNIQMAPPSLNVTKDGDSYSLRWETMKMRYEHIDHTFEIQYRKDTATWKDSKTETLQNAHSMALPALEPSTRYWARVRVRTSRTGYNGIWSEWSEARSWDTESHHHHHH
Method: as §1, §2, §3

shCD131 V108A = target: T4, shCD131 V108A (human, UniProt P32927 17-438)
T4 construct: C-terminal 6xHis
T4 sequence: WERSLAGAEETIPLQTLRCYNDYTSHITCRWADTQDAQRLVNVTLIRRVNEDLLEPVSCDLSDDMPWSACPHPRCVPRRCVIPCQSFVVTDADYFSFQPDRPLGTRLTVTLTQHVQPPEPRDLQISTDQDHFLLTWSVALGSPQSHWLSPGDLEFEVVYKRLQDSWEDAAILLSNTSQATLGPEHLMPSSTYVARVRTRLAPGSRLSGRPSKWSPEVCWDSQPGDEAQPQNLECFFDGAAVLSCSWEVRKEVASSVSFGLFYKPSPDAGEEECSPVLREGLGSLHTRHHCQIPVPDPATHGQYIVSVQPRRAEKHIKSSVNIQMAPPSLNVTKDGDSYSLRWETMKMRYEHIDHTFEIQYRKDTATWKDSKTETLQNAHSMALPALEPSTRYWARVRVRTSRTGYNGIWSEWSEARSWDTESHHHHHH
Method: as §1, §2, §3

B1: 9A2 Fab (Fab, V domains shown)
VH: EVQLLESGGGLVQPGGSLRLSCAASGFTFSHYHMLWVRQAPGKGLEWVSSIRSSGGFTYYADSVKGRFTISRDNSKNTLYLQMNSLRAEDTAVYYCARFYDSFFDIWGQGTMVTVSS
VL: DIQMTQSPSSVSASVGDRVTITCRASQGISSWLAWYQQKPGKAPKLLIYAASSLQSGVPSRFSGSGSGTDFTLTISSLQPEDFATYYCQQANSFPITFGQGTRLEIKR
notes: also called recombinant Fab of 9A2
Binder B1 has a Kd (shCD131 G420A) of 63 nM, a Kd (shCD131 V104A) of 117 nM and a Kd (shCD131 V105A) of 78 nM. The Kd (shCD131 V108A) was 83 nM.
